According to the supplement of paper PMC9732359:
± gives the uncertainty stated by the source.

Test: protein stability index of a GFP-peptide fusion (yeast GPS) (PSI 1-4); higher = more stable; sorted into four equal gates, so the index is relative within each strain
Outline: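 Tiled 17-residue yeast protein peptides were fused downstream of GFP in a plasmid that also expresses Cherry, and the pooled library was carried in yeast. Mid-log cultures in leucine-free medium were sorted into four equal gates by GFP/Cherry fluorescence ratio, and plasmids from each gate were PCR-amplified and Illumina-sequenced, with reads assigned to strains by barcodes. The protein stability index for each peptide was each gate's read frequency times its gate number, summed.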

Row | Sequence | protein stability index (doa10∆) | protein stability index (pdr5∆) | protein stability index (san1∆) | protein stability index (ubr1∆)
1 | AIRKNGQIDFWYQFSNS [SIN4] | 2.09 ± 0.087 | 2.08 ± 0.08 | 1.77 ± 0.082 | 2.52 ± 0.056
2 | AISTGAKIDVMLTIARL [RPN7] | 3.31 ± 0.16 | 3.23 ± 0.099 | 3.33 ± 0.054 | 3.38 ± 0.075
3 | AITADLGSSEAENLLQL [YGL172W/NUP49] |  | 1.31 ± 0.21 |  | 
4 | AITNTGPREDTTRVGGG [RPS5] | 3.04 ± 0.074 | 3.05 ± 0.073 | 2.9 ± 0.07 | 3.18 ± 0.054
5 | AKALESLASCLRSTEYS [POP1] | 3.08 ± 0.16 | 3.25 ± 0.14 | 2.8 ± 0.13 | 2.61 ± 0.17
6 | AKEELNGLKDQLNEERS [YIL149C/MLP2] | 3.3 ± 0.14 | 3.42 ± 0.17 | 3.19 ± 0.075 | 3.41 ± 0.15
7 | AKETHTKPSETPATIVK [YOR098C/NUP1] | 3.28 ± 0.092 | 3.17 ± 0.066 | 2.87 ± 0.064 | 3.12 ± 0.066
8 | AKGVYRPNGRKDHDLKI [POP1] | 2.88 ± 0.078 | 3.08 ± 0.052 | 2.93 ± 0.049 | 3.03 ± 0.061
9 | AKKQNRPLPQWIRLRTN [RPL39] | 1.95 ± 0.063 | 2.69 ± 0.043 | 1.26 ± 0.082 | 2.44 ± 0.043
10 | AKLIRSAIEHTTLKSVT [RPO21] | 3.46 ± 0.15 | 2.96 ± 0.2 | 3.19 ± 0.19 | 3.04 ± 0.12
11 | AKLWFYIYLSHETLARS [RPN3] | 1.69 ± 0.088 | 1.4 ± 0.086 | 1.68 ± 0.15 | 1.65 ± 0.084
12 | AKNETNSESDSKSDSDS [ITC1] | 3.01 ± 0.05 | 3.03 ± 0.049 | 3.09 ± 0.047 | 2.88 ± 0.042
13 | AKPDARTQAGDIVSIDI [MTW1] | 3.27 ± 0.13 | 3.53 ± 0.13 | 3.55 ± 0.091 | 3.64 ± 0.098
14 | AKRNLDANPSSQIIARN [SMC2] | 2.49 ± 0.083 | 2.79 ± 0.076 | 3.09 ± 0.095 | 2.92 ± 0.065
15 | AKSTPNTNPSPLKTQTK [GAL11] | 2.82 ± 0.051 | 2.94 ± 0.046 | 2.64 ± 0.05 | 2.91 ± 0.038
16 | AKTELNEVSLAIKKSSM [SMC2] | 3.03 ± 0.06 | 3.12 ± 0.087 | 3.04 ± 0.11 | 2.96 ± 0.053
17 | AKTFIDLESSSPELKAD [RPS7B] | 3.03 ± 0.086 | 3.4 ± 0.077 | 3.29 ± 0.085 | 3.17 ± 0.085
18 | ALAFCEIGITQQRIVSA [RRP4] | 1.71 ± 0.11 | 2.31 ± 0.11 | 1.92 ± 0.23 | 2.25 ± 0.075
19 | ALDIVCSDFVKILNLEK [NUT1] | 2.7 ± 0.069 | 2.7 ± 0.07 | 2.35 ± 0.11 | 2.29 ± 0.099
20 | ALENDVATNIVNEDPIF [YML103C/NUP188] | 2.94 ± 0.051 | 3.1 ± 0.068 | 3.04 ± 0.052 | 3.05 ± 0.048
21 | ALFFDPSLNPIPHFIDN [PRP8] | 2.64 ± 0.058 | 2.77 ± 0.047 | 2.47 ± 0.057 | 2.61 ± 0.04
22 | ALILADSEIEISSEKLL [RPP1A] | 1.95 ± 0.13 | 1.87 ± 0.11 | 1.94 ± 0.096 | 2.06 ± 0.081
23 | ALIRRDFTLIPRMASVF [CDC53] | 2.12 ± 0.13 | 2.39 ± 0.072 | 2.64 ± 0.16 | 2.17 ± 0.14
24 | ALLNFVLPKIFNSVKSF [SNF2] | 2.44 ± 0.094 | 1.71 ± 0.066 | 1.98 ± 0.11 | 1.33 ± 0.043
25 | ALPRKLRRRTASHNVRR [POP1] | 2.91 ± 0.058 | 3.06 ± 0.06 | 2.79 ± 0.056 | 2.74 ± 0.039
26 | ALRLSMEEEQQRQERLR [RPN10] | 3.33 ± 0.16 | 3.06 ± 0.26 | 3.36 ± 0.065 | 3.38 ± 0.11
27 | ALSLLYHLLNYDPIKRI [SSN3] | 2.56 ± 0.073 | 2.05 ± 0.051 | 2.39 ± 0.072 | 2.19 ± 0.039

Row | Sequence | protein stability index (doa10∆) | protein stability index (pdr5∆) | protein stability index (san1∆) | protein stability index (ubr1∆)
28 | AMHNSKAASSTRIFQAL [POP1] | 2.59 ± 0.093 | 2.54 ± 0.078 | 2.87 ± 0.14 | 2.89 ± 0.11
29 | ANALGGLGVNRRILAAA [SSN3] | 1.77 ± 0.068 | 1.69 ± 0.069 | 1.58 ± 0.16 | 1.92 ± 0.046
30 | ANANANATANATANATA [SNF11] | 3.14 ± 0.037 | 3.37 ± 0.037 | 3.285 ± 0.031 | 3.342 ± 0.029
31 | ANDHDESIDVDMDAESN [SMC3] |  | 2.37 ± 0.28 |  | 1.81 ± 0.25
32 | ANIELTWAEGTFEQFKD [RPC37] | 3.25 ± 0.12 | 3.18 ± 0.076 | 3.31 ± 0.16 | 3.32 ± 0.093
33 | ANLGKYGILSIDDLIHE [RPL7A] | 1.78 ± 0.092 | 1.98 ± 0.094 | 1.54 ± 0.17 | 1.15 ± 0.086
34 | ANTGGQDKIELSEEETL [SNF2] | 2.62 ± 0.12 | 2.8 ± 0.25 | 3.08 ± 0.063 | 2.94 ± 0.12
35 | APIPKGRVKYTKRQKHF [POP1] | 1.2 ± 0.13 | 1.9 ± 0.12 | 2.2 ± 0.13 | 1.77 ± 0.082
36 | APIQLKIDLLSGQFYFR [RGR1] | 2.63 ± 0.14 | 2.86 ± 0.16 | 2.15 ± 0.23 | 3.02 ± 0.082
37 | APNNSNGGSEEEITCAL [MED7] | 3.45 ± 0.094 | 3.45 ± 0.13 | 3.42 ± 0.095 | 3.31 ± 0.085
38 | APQLFPYGSFHQQQLQQ [DSN1] | 2.77 ± 0.076 | 2.84 ± 0.09 | 2.77 ± 0.087 | 3.15 ± 0.069
39 | APSANQGDEALSVDDIR [RTT102] | 3.15 ± 0.093 | 3.33 ± 0.1 | 2.98 ± 0.088 | 
40 | APTGSGKTNIALLTVLK [BRR2] | 2.88 ± 0.067 | 3.07 ± 0.073 | 3.35 ± 0.052 | 2.88 ± 0.049
41 | APVEVQEDFEVVEEFTP [RPS5] | 3.31 ± 0.076 | 3.21 ± 0.08 | 3.02 ± 0.049 | 2.94 ± 0.062
42 | AQDSLTVTIASSLNLED [RPB8] | 1.65 ± 0.048 | 1.92 ± 0.044 | 2.23 ± 0.079 | 1.89 ± 0.045
43 | AQDVALAKKWFLQHPDE [PRP8] | 2.7 ± 0.089 | 2.38 ± 0.095 | 2.33 ± 0.13 | 2.67 ± 0.077
44 | AQFTFGKAATAKETHTK [YOR098C/NUP1] | 2.84 ± 0.13 | 2.81 ± 0.17 | 2.84 ± 0.18 | 3.02 ± 0.18
45 | AQGTKFRISLGLPVGAI [RPL23A] | 1.94 ± 0.1 | 1.84 ± 0.063 | 1.42 ± 0.17 | 1.92 ± 0.11
46 | AQLAKAKTELNEVSLAI [SMC2] | 3 ± 0.077 | 2.75 ± 0.074 | 1.82 ± 0.097 | 2.61 ± 0.046
47 | AQQVPPYGVYHPPFIKY [SIN4] | 2.99 ± 0.12 | 1.61 ± 0.094 | 2.33 ± 0.074 | 2.18 ± 0.069
48 | AQRLQISDYQQLESIYF [SWI1] | 2.38 ± 0.05 | 1.95 ± 0.027 | 2.58 ± 0.043 | 2.76 ± 0.046
49 | ARDIISHNFQNAIFQME [PCI8] | 2.79 ± 0.063 | 2.94 ± 0.069 | 2.75 ± 0.046 | 2.92 ± 0.05
50 | ARDLFLKIYYKEEFSSD [RRI2] |  | 2.44 ± 0.15 | 2.03 ± 0.22 | 2.9 ± 0.1
51 | ARHKKKVENLDYMYENG [YML031W/NDC1] | 3.41 ± 0.15 | 3.37 ± 0.14 | 3.08 ± 0.12 | 
52 | ARIALRHLEKEGIIKPI [RPS25A] | 2.98 ± 0.092 | 3.37 ± 0.16 | 3.06 ± 0.094 | 3.12 ± 0.085
53 | ARIVRVRSREDRKNRAP [RPS26A] | 3.55 ± 0.23 |  | 3.27 ± 0.26 | 2.87 ± 0.099
